Measured values: patent EP1789452B1 (Janssen Pharmaceutica NV, dated 2006)
Ends that are not written are not given here.

T1: human LGR7 (human, UniProt Q9HBX9 1-757)
T1 construct: whole, on cells
T1 sequence (looked up): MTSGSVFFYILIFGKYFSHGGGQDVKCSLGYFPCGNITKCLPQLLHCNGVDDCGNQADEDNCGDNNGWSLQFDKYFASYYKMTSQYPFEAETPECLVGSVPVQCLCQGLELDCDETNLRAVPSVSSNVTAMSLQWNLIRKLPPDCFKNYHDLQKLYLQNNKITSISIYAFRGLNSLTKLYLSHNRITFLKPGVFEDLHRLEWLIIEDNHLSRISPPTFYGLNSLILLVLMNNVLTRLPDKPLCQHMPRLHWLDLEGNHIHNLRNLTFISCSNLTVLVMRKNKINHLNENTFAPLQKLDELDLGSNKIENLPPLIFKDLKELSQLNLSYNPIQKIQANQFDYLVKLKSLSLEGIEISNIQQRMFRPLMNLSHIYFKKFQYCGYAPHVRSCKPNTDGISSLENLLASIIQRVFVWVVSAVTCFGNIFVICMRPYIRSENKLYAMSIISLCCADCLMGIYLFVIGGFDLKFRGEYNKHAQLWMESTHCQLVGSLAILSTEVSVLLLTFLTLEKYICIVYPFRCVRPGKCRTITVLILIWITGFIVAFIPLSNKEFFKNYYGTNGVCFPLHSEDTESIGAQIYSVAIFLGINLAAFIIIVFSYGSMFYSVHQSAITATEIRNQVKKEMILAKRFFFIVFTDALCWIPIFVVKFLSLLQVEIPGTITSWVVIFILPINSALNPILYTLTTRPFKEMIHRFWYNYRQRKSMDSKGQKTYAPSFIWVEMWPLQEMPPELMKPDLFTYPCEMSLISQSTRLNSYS

T2: human GPCR135 (human, UniProt Q9NSD7 1-469)
T2 construct: also called SALPR
T2 sequence: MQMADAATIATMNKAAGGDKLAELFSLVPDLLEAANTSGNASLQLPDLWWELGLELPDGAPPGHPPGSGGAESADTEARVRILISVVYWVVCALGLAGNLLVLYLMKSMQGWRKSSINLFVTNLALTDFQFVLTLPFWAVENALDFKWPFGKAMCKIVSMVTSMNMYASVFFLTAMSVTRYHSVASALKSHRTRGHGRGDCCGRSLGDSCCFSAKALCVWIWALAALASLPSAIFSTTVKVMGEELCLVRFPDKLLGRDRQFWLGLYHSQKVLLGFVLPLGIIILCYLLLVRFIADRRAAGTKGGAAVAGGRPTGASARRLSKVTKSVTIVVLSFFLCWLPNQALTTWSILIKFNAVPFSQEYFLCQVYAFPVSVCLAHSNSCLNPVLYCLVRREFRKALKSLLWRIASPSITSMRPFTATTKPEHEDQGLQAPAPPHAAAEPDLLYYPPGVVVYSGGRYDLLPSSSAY

T3: rat LGR7 (rat, UniProt Q6R6I6 1-758)
T3 construct: whole, on cells; Membranes of COS-7 cells transiently expressing rat LGR7; also called rat recombinant LGR7
T3 sequence (looked up): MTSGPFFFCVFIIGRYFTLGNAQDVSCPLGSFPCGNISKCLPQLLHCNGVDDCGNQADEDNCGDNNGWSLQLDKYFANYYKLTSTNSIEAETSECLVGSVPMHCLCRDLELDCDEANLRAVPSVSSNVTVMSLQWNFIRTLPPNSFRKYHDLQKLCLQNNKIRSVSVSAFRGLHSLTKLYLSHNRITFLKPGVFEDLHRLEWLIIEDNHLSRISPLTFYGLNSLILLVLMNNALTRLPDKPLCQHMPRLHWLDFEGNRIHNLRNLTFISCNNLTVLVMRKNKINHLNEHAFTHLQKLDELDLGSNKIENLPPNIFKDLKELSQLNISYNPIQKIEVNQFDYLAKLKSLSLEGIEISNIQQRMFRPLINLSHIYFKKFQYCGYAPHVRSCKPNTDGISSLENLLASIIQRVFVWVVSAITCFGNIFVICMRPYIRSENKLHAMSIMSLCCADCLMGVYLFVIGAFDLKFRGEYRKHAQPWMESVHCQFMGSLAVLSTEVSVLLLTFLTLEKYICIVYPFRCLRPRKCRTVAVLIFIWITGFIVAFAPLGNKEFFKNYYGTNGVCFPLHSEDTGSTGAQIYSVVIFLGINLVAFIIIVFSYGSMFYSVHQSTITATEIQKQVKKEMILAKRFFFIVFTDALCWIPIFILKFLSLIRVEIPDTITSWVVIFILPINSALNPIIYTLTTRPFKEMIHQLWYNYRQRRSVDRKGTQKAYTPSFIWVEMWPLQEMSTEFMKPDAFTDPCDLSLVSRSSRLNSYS

B1: Relaxin-3/INSL3 (R3/I3) chimeric polypeptide (ligand, human)
chain 1: RAAPYGVRLCGREFIRAVIFTCGGSRW
chain 2: NPARYCCLSGCTQQDLLTLC
modifications: disulfide (positions not given here)
notes: domain: A-chain; Two chains joined by disulfide bonds; FLAG tag removed
B2: Relaxin-3/Relaxin-1 (R3/R1) chimeric polypeptide (ligand, human)
chain 1: RAAPYGVRLCGREFIRAVIFTCGGSRW
chain 2: RPYVALFEKCCLIGCTKRSLAKYC
modifications: disulfide (positions not given here)
notes: domain: A-chain; Two chains joined by disulfide bonds; Made in COS-7 cells with furin, FLAG tag removed with enterokinase
B3: human INSL3 (ligand)
chain 1: PTPEMREKLCGHHFVRALVRVCGGPRWSTEA
chain 2: AAATNPARYCCLSGCTQQDLLTLCPY
modifications: ends and bridges not checked; also: also used as 125I-labelled tracer
B4: Relaxin-3/INSL4 (R3/I4) chimeric polypeptide (ligand, human)
chain 1: RAAPYGVRLCGREFIRAVIFTCGGSRW
chain 2: FDPFCCEVICDDGTSVKLC
modifications: disulfide (positions not given here)
notes: as for B1
B5: Relaxin-3/INSL5 (R3/I5) chimeric polypeptide (ligand)
chain 1: RAAPYGVRLCGREFIRAVIFTCGGSRW
chain 2: DLQTLCCTDGCSMTDLSALC
modifications: disulfide (positions not given here); also: two chains joined by disulfide bonds, places not given here
notes: Two chains joined by disulfide bonds; FLAG tag removed with enterokinase; also called R3/I5 chimera; I5/R3
B6: human relaxin-3 (ligand)
chain 1: RAAPYGVRLCGREFIRAVIFTCGGSRW
chain 2: DVLAGLSSSCCKWGCSKSEISSLC
modifications: ends and bridges not checked; also: also used as 125I-labelled tracer
notes: domain: A-chain; Mature two-chain hormone; also called R3; INSL7
B7: Relaxin-3/Relaxin-2 (R3/R2) chimeric polypeptide (ligand, human)
chain 1: RAAPYGVRLCGREFIRAVIFTCGGSRW
chain 2: QLYSALANKCCHVGCTKRSLARFC
modifications: disulfide (positions not given here); also: two chains joined by disulfide bonds, pairing not given here
notes: as for B1
B8: Relaxin-3/INSL6 (R3/I6) chimeric polypeptide (ligand, human)
chain 1: RAAPYGVRLCGREFIRAVIFTCGGSRW
chain 2: GYSEKCCLTGCTKEELSIAC
modifications: disulfide (positions not given here)
notes: as for B1

Columns and labels:
human GPCR142 [1] = molecular target: T4, human GPCR142 (human, UniProt Q8TDU9 1-374); test: competition with 100 pM [125I]-relaxin-3, COS-7 membranes with human GPCR142
T4 sequence (Q8TDU9 whole entry L329S, form in doubt): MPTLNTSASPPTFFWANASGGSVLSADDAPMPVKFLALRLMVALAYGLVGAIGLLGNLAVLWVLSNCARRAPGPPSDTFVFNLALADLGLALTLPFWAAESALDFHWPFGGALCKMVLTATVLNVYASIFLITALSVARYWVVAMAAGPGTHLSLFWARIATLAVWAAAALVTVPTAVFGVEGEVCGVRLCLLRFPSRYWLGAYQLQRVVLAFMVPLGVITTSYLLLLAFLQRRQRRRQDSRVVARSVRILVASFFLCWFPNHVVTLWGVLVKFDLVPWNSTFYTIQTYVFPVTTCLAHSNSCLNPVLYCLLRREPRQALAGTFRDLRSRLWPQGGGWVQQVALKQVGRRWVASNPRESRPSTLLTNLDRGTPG

human LGR7 [2] = molecular target: T1, human LGR7; test: competition with 100 pM [125I]-relaxin-3, live COS-7 cells with human LGR7
human LGR8 [3] = molecular target: T5, human LGR8 (human, UniProt Q8WXD0 1-754); test: competition with 100 pM [125I]-INSL3, live COS-7 cells with human LGR8
T5 construct: whole, on cells; also called LGRB
T5 sequence (Q8WXD0 whole entry): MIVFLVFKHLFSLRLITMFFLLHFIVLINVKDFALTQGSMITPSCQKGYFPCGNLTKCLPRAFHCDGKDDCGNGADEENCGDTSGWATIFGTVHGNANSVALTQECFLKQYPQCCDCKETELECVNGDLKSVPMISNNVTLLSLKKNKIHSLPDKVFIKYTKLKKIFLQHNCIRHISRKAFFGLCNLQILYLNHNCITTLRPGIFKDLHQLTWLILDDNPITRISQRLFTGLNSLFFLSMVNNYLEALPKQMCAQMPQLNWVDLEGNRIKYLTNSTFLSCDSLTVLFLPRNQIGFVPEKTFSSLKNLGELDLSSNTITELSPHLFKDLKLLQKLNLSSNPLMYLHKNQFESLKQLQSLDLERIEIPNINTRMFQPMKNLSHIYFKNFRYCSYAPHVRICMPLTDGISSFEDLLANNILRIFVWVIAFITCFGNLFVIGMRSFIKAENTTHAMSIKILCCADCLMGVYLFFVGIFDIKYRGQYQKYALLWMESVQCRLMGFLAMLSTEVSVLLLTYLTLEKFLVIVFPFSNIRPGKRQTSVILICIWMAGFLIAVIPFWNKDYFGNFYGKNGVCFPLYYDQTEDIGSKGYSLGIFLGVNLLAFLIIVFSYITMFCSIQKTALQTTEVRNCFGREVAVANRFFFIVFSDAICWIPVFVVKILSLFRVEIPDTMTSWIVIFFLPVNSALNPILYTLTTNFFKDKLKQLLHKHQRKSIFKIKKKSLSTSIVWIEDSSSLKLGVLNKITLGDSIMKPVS

human LGR8 [4] = molecular target: T5, human LGR8; test: radioligand competition with [125I]-INSL3, human LGR8; lower end tied to R3/I3 by Table 1
human LGR7 [5] = molecular target: T1, human LGR7; test: cell-based or functional assay
human GPCR142 [6] = molecular target: T4, human GPCR142; test: cell-based or functional assay
human LGR8 [7] = molecular target: T5, human LGR8; test: cell-based or functional assay
human GPCR135 [8] = molecular target: T2, human GPCR135; test: competition with 100 pM [125I]-relaxin-3, COS-7 membranes with human GPCR135
human GPCR135 [9] = molecular target: T2, human GPCR135; test: cell-based or functional assay
human LGR8 [10] = molecular target: T5, human LGR8; test: cell-based or functional assay; remark: listed apart in the source
human LGR7 [11] = molecular target: T1, human LGR7; test: competition with 100 pM [125I]-relaxin-3, live COS-7 cells expressing human LGR7; ND denotes no activity was detected
human LGR8 [12] = molecular target: T5, human LGR8; test: competition with 100 pM [125I]-INSL3, live COS-7 cells expressing human LGR8; ND denotes no activity was detected
rat LGR7 = molecular target: T3, rat LGR7; test: competition with 100 pM [125I] human relaxin-2, COS-7 membranes with rat LGR7
rat GPCR135 [13] = molecular target: T6, rat GPCR135 (rat, UniProt Q5Y987 29-469); test: competition with 100 pM [125I] human R3, COS-7 membranes with rat GPCR135
T6 construct: whole, on cells; also called rat recombinant GPCR135

human LGR7 [14] = molecular target: T1, human LGR7; test: radioligand competition, human LGR7 (Table 1 prints 724 nM)
rat GPCR135 [15] = molecular target: T6, rat GPCR135; test: ratio of IC50 values from radioligand competition on rat GPCR135 and rat LGR7
human LGR7 [16] = molecular target: T1, human LGR7; test: discussion of the radioligand binding results of Examples 3-5
human GPCR135 [17] = molecular target: T2, human GPCR135; test: as above
human LGR7 [18] = molecular target: T1, human LGR7; test: cell-based or functional assay; remark: listed apart in the source
rat GPCR135 [19] = molecular target: T6, rat GPCR135; test: quantitative receptor autoradiography, displacement of 7 pM [125I]R3/I5 from rat brain sections; cortex; unit from paragraph 235
rat GPCR135 [20] = molecular target: T6, rat GPCR135; test: quantitative receptor autoradiography, displacement of 7 pM [125I]R3/I5 from rat brain sections; superior colliculus; unit from paragraph 235
rat GPCR135 [21] = molecular target: T6, rat GPCR135; test: quantitative receptor autoradiography, displacement of 7 pM [125I]R3/I5 from rat brain sections; olfactory bulb; unit from paragraph 235
human LGR7 [22] = molecular target: T1, human LGR7; test: radioligand competition, human LGR7 (Table 1 prints 12.9)
human GPCR135 [23] = molecular target: T2, human GPCR135; test: cell-based or functional assay; remark: listed apart in the source
human GPCR142 [24] = molecular target: T4, human GPCR142; test: cell-based or functional assay; remark: listed apart in the source

Binder	IC50 (human GPCR142 [1]) [nM]	IC50 (human LGR7 [2]) [nM]	IC50 (human LGR8 [3]) [nM]	EC50, ligand stimulated β-galactosidase expression (human LGR7 [5]) [nM]	EC50, inhibition of forskolin stimulated β-galactosidase expression (human GPCR142 [6]) [nM]	EC50, ligand stimulated β-galactosidase expression (human LGR8 [7]) [nM]	IC50 (human GPCR135 [8]) [nM]	EC50, inhibition of forskolin stimulated β-galactosidase expression (human GPCR135 [9]) [nM]	binding result (human LGR8 [12])	other results
B1	3.5	2.3	475	2.5	2.9	258	–	–	–	IC50 (human LGR8 [4]): 500 nM
B2	2.6	5.1	> 1000	4.5	–	> 1000	2.9	1.8	–	–
B3	–	–	–	–	–	–	–	–	–	induction of β-galactosidase activity in SK-N-MC/β-gal cells, EC50 (human LGR8 [10]): 0.16 nM
B4	> 1000	–	–	–	> 1000	–	> 1000	> 1000	no binding	binding result (human LGR7 [11]): no binding (tested: 1 µM)
B5	1.4	724	–	412	0.91	–	0.68	0.45	no binding	IC50 (rat LGR7): > 400 nM; IC50 (rat GPCR135 [13]): 0.5 nM; IC50 (human LGR7 [14]): ~500 nM; fold selective over rat LGR7 (rat GPCR135 [15]): 800 fold; Kd (human LGR7 [16]): ~500 nM; Kd (human GPCR135 [17]): ~0.5 nM
B6	–	–	–	–	–	–	–	–	–	stimulation of β-galactosidase activity in SK-N-MC/β-gal cells, EC50 (human LGR7 [18]): 1.4 nM; IC50 (rat GPCR135 [19]): 0.4 nM; IC50 (rat GPCR135 [20]): 0.3 nM; IC50 (rat GPCR135 [21]): 0.3 nM
B7	1.8	1.5	615	1.1	1.4	575	1.2	1.1	–	–
B8	11.3	12.9	–	13.7	11.2	–	9.5	8.4	no binding	IC50 (human LGR7 [22]): 15 nM
RAAPYGVRLCGREFIRAVIFTCGGSRW [synthetic human relaxin-3 B-chain]	–	–	–	–	–	–	–	–	–	inhibition of forskolin-stimulated β-galactosidase activity in SK-N-MC/β-gal cells, EC50 (human GPCR135 [23]): 88 nM; inhibition of forskolin-stimulated β-galactosidase activity in SK-N-MC/β-gal cells, EC50 (human GPCR142 [24]): 125 nM
